Our source for the Km and kcat values is doi:10.1101/2023.02.21.529347v1.

This data set concerns CC1(C)[C@H]2CC=C(C=O)[C@@H]1C2. Nature of the data set: purified protein. The conditions noted are these: co-substrate F420H2; apparent value; fit with substrate inhibition.

What is called Km is the substrate concentration at which the rate is half of its maximum. Broadly, the kcat is the maximal rate divided by the concentration of active sites. In the case of “MSMEG_2850 (Mycolicibacterium smegmatis MC2 155; Y124M)”, the Km was determined as 260 ± 20 µM and the kcat was 0.65 ± 0.018 s⁻¹.
